From the RNAGym collection of RNA variant scans (doi:10.7554/elife.80360)

B1: Twister Ribozyme (parent)
chain: AACACUGCCAAUGCCGGUCCCAAGCCCGGAUAAAAGUGGAGGGGGCGG

Variants of: B1
Assay: self-cleavage, relative activity (ratio to wild type); higher = more cleavage; co-transcriptional

| Variant | self-cleavage |
| --- | --- |
| C8U C26G | 0.0721 |
| U6C C9U | 0.0507 |
| A2U U31C | 0.652 |
| C27A A32C | 0.484 |
| G28A A35G | 0.575 |
| C26A G47U | 0.144 |
| A30U A35C | 1.07 |
| U18A G24C | 0.0951 |
| A1C G29U | 0.215 |
| U12C C14A | 0.818 |
| G41U G45U | 0.25 |
| U6A A22U | 0.816 |
| A32G G39A | 0.48 |
| G13A G28A | 0.579 |
| A10U G17A | 0.532 |
| U6G G39C | 0.124 |
| A4G G44A | 0.88 |
| G41C G42U | 0.167 |
| A10C C21G | 0.0689 |
| G28A U31G | 0.916 |
| A2U A4C | 0.0829 |
| C26A A40U | 0.107 |
| C27A G41C | 0.152 |
| G24A G28A | 0.0708 |
| A2C C5A | 0.0506 |
| G13C G24C | 0.0811 |

| Variant | self-cleavage |
| --- | --- |
| G13A C25U | 0.387 |
| U6G C25A | 0.058 |
| U31C A32C | 0.965 |
| A23C C27G | 0.0848 |
| U6G C9U | 0.163 |
| G41U G42A | 0.136 |
| C27G A35C | 0.104 |
| A1U C27U | 0.0591 |
| A35G G48C | 1.04 |
| G7U A32U | 0.101 |
| C3A C8U | 0.122 |
| A40U G48A | 0.159 |
| G13C C26A | 0.0939 |
| A23U C25G | 0.0583 |
| A35G G44U | 0.831 |
| C3G A34C | 0.0918 |
| C14U G43C | 0.227 |
| A11C G13U | 0.0589 |
| A4C G7U | 0.0643 |
| G7A G39C | 0.141 |
| A1U G13C | 0.0521 |
| A4G A34C | 0.128 |
| A11C A30C | 0.719 |
| U12G C15A | 0.614 |
| A1U G38A | 0.0686 |
| G13C C46U | 0.485 |

| Variant | self-cleavage |
| --- | --- |
| G17C C26U | 0.17 |
| A10C G43U | 0.482 |
| A4C A32C | 0.101 |
| C14G G28A | 0.162 |
| U6A C14G | 0.124 |
| G7U A33U | 0.109 |
| G29C G43A | 0.119 |
| C3U G38U | 0.409 |
| A32G G48A | 0.925 |
| C21G G41A | 0.159 |
| G13U U18A | 0.0935 |
| A2C G28C | 0.0792 |
| A32U C46G | 0.973 |
| G16U A32G | 1.02 |
| A2G C46U | 0.416 |
| C14G A33U | 0.172 |
| A11C G48C | 1.05 |
| A11C G48A | 0.998 |
| A23G G48A | 0.327 |
| C15A C27G | 0.0735 |
| A32U G48C | 1.2 |
| G42U G45A | 0.294 |
| A10G U12C | 0.847 |
| G7U A34C | 0.0467 |
| C5G A30U | 0.883 |
| G24A G41U | 0.082 |

| Variant | self-cleavage |
| --- | --- |
| A33U G44A | 0.907 |
| C3U A4G | 0.183 |
| G7U A22C | 0.11 |
| C3G G17C | 0.0532 |
| U18C A22C | 0.397 |
| C9G G42C | 0.199 |
| A4G G39U | 0.153 |
| U6C G7A | 0.0638 |
| G7A C20U | 0.116 |
| C27A A33U | 0.334 |
| A2G G38U | 0.125 |
| C9G G38A | 0.278 |
| C9A C14A | 0.61 |
| G13A G43C | 0.167 |
| C20G G45A | 0.102 |
| C14U G16U | 0.778 |
| A23C G47U | 0.145 |
| A2G G45A | 0.338 |
| C20A C25U | 0.112 |
| A1C C9G | 0.23 |
| C5U G42A | 0.184 |
| G7A G45U | 0.177 |
| G17C C20G | 0.0846 |
| U37C G41A | 0.134 |
| A11G G13A | 0.745 |
| C21U G39U | 0.0656 |

| Variant | self-cleavage |
| --- | --- |
| G7U C19G | 0.0806 |
| A2G C20A | 0.0649 |
| U31A G36C | 0.388 |
| G7U C27G | 0.0829 |
| A1G A35U | 0.447 |
| A1U A10G | 0.0651 |
| A22G A40U | 0.138 |
| A22G A40C | 0.11 |
| A4G G47C | 0.386 |
| G17U A22C | 0.406 |
| C25A A40C | 0.114 |
| A2G G16U | 0.301 |
| A2G A4U | 0.117 |
| G24C G47A | 0.0965 |
| G24A G48U | 0.0761 |
| C8U G39C | 0.147 |
| A4U C20G | 0.0603 |
| G24A C26G | 0.0568 |
| A11G U12A | 0.942 |
| C26A A30G | 0.348 |
| A10G G44U | 1.04 |
| A10G G44C | 0.965 |
| A4G U6C | 0.104 |
| A22U G48U | 0.911 |
| A23G G29A | 0.307 |
| U6G G48A | 0.24 |

| Variant | self-cleavage |
| --- | --- |
| A4C C21U | 0.0583 |
| C25G A30G | 0.625 |
| C15U C27U | 0.542 |
| U6C C20U | 0.169 |
| G45A C46G | 0.856 |
| G13A A30C | 0.771 |
| A11C G36A | 0.87 |
| U12G C21U | 0.0878 |
| A30G A35U | 0.782 |
| G29A A35U | 0.887 |
| G29A U31C | 0.986 |
| C20U G38U | 0.742 |
| U6A C9G | 0.244 |
| U6A C26A | 0.144 |
| A2G C21G | 0.215 |
| G38A G47A | 0.882 |
| G16C G24A | 0.0685 |
| A11U G45U | 0.953 |
| C8U A11G | 0.551 |
| A1U G24C | 0.0779 |
| G29A G41A | 0.452 |
| C8G G39A | 0.0973 |
| G16U U31G | 1.04 |
| C26A A33U | 0.534 |
| U6C G47U | 0.575 |
| C21G A34C | 0.0532 |

| Variant | self-cleavage |
| --- | --- |
| G43C G44A | 0.469 |
| G17U G28A | 0.11 |
| C21G U31G | 0.0712 |
| A22U G39U | 0.0706 |
| A23G A34U | 0.15 |
| A4G C8U | 0.953 |
| A40G G41U | 0.166 |
| G24A C27U | 0.106 |
| A23G G38U | 0.236 |
| C8U G41C | 0.0951 |
| C21G G43U | 0.0954 |
| C9A C26U | 0.06 |
| U6C C8U | 0.174 |
| C5G G39C | 0.106 |
| G16U G42U | 0.166 |
| C9U A33G | 0.548 |
| C9U A33C | 0.601 |
| C14A G29C | 0.947 |
| C8U G13U | 0.103 |
| A1U G42C | 0.0572 |
